Experimental data reported in the nanobody polyreactivity screen of Harvey et al. (2022).

assay: yeast display, Sf9 membrane polyspecificity reagent, FACS + sequencing; frameworks hold sequencing errors
In short: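 Polyreactivity labels are assigned by the sorting gate from which each nanobody was recovered. The gates were low and high (top ~1%), set on anti-HA fluorescence for expression and streptavidin fluorescence for reagent binding. Before sorting, galactose-induced (36–48 hours) yeast display cells were stained for 1 hour at 4 °C with 10% biotinylated, detergent-solubilized Sf9 membrane reagent.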

Sequence | polyreactivity (PSR sort gate)
QVQLVESGGGLVQAGGSLRLSCAASGFTFHYYAMGRYRQAPGKERELVAAISWDTGSTYYADSVKGRFTISRDNAKNTVYLQMNSLKPEDTAVYYCNAQFYWYHGEWVFYGLSDDFDYWGQGTQVTVSS | high polyreactivity
QVQLVESGGGLVQAGGSLRLSCAASGSTFRNYAMGWYRQAPGKERELVATISASGGSTYYADSVKGRFTISRDNAKNTVYLQMNSLKPEDTAVYYCNAVVKLWGLVIPPGDYDYWGQGTQVTVSS | high polyreactivity
QVQLEESGGGIVQAGGSLRLSCAASGGIFGTYAMGWYRQAPRKERELVASISSDTSTTYADSVKGRFTISRDNAKNTVYLQMNSLKAEDTAVYYCAAGSDYDDDYWGQGTQVTVSS | high polyreactivity
QVQIVESGGGLVQAGGSLRLTCAASGSIFGDYAMGWYRQASGKERELVASISESGGSTYYADSVKGRFTISRDNAKNTVYLQMISLKPEDTAVYYCNTDYDYGWWDLGEYEYWGHGTQVTVSS | low polyreactivity
QVQLVESGGGLVQAGGSLRLSCAASGPTFYKYAMGWYRQAPGKERELVATITRRGGSTYYADSVKGRFTISRDNAKNTVYLQMNSLKPEDTAVYYCAKEIFQKGPDGHDYWGQGTQVTVSS | low polyreactivity
QVQLVESGGGLVQAGGSLRLSCAASGFIFQWYAMGWYRQAPGKERELVAAISIGDSTYYADSVKGRFTISRDNAKNTVYLQMNSLKPEDTAVYYCNSDPWGYYCVIPLYEYDYWGQGTQVTVSS | low polyreactivity
QVQLVESGGGLVQAGGSLPLSCAASGFTFDKYAMGWYRQAPGKERELVAAISNSGGRTYYADSVKGRFTISRDNAKKTVYLQMNSLKPEDTAVYYCAAKFRYQYVRVAREYYYWGQGTQVTVSS | high polyreactivity
QVQLVESGGGLVQAGGSLRLSCAASGSTLRDYVMGWYRQAPGKERELVAAITSRVDDTYYADSVKGRFTISRDNAKNTVYLQMNSLKPEDTAVYDCAADYSVTLRIGGYYWFYAFDYWGQGTQVTVSS | low polyreactivity
QVQLVESGGGLVQAGGSLRLSCAASGLIIRRYAMGWYRQAPGKERELVAAISGSGSSTYYADSVKGRFTISRDNAKNTVYLQMNSLKPEDTAVYDCAAVVLFRRGQVIRVESDYWGQGTQVTVSS | high polyreactivity
QVQLVESGGGLVQAGGSLRLSCAASGSTFPYNTMGWYRQAPGKERDFVAAITGDGGTTYYADSVKGRFTISRDNAQNTVYLQMNSLKQEDTAVYYCAVPYPAEGYGGDYWGQGSQVTVSS | low polyreactivity
QVQLQESGGGLVQARGSLRLSCAASGSISRYYDMGWYRQAPCKESEFVAGISGGAITYYADSVKGRFTISRDNAKNTVYLQMNSLKPEDTAVYYCAADTGVYKYHSYWGQVTQVTVSS | low polyreactivity
QVQLVESGGGLVQAGGSLRLSCAASVSTFEANAMGWYRQAPGKERELVAVITWTGGSTYYADSVKGRFTISRDYAKNNVYLQMNSLKPEDTAVYYCAAKFHRFAWYSHYDYWGQGTQVTVSS | low polyreactivity
QVQLVESGGGLVQAGGSLRLSCAASGRIFRTYTMGWYRQAPGKERELVAAISRSGASTYYADSVKGRFTISRDNAKNTVYLQMNSLKPEDTAVYYCAKLILSTALVSRPGVDYWGQGTQVTVSS | high polyreactivity
QVQLVESGGGLVQAGGSLRLSCSAYGYTFSHYAMGWYRQAPGKERELVAGITWSGGSTYYADSVKGRYTISRDNAKNTVYLQMNSLKPEDTSVYYCAAKYYWYYSYSGIPLFDYWGQGTQVTVSS | low polyreactivity
QVQLVESGGGLVQAGGSLRLSCAASGRTFRVYAMGWYRQAPGKERELVAAINGGGSTNYADSVKGRFTISRDNAKNTVYVQMNSLKPEDTAVYYCNATGRRSKRIYDYWGQGTQVTVSS | high polyreactivity
QVQLVESGGGLVQAGGSLRLSCAASGGTFEYNAMGWYRQAPGKERELVAAISKSGGRTYFADSVKGRFTISRDNAMNTVYLQMNSLKPEDTAVYYCAKRYVWGQGTQVTVSS | high polyreactivity
QVQLVESGGGLVQAGGSLLLSSADSGSTFNYNAMGWYRQSHGKERELVAVINSGGSTYYADSVKGRFTISRDNAKNTVYLQMNSLKPEDTAVYYCAAATYRQQWHYYWGQGTQGTVSS | high polyreactivity
QVHLVESGGGLVQAGGSLRLSCAASGFIFFYYAMGWYRQAPGTERELVAAISRSGGSTYYADSVKGRFTISRDNAKNTVYFQMNSLKPEDTAVYYCAAVWPVIYGMDYWGQGTQVTVSS | high polyreactivity
QVQLVESGGGLVQAGGSLRLSCAASGSIVLIYAMGWYRQAPGKERELVAAITGRGGRTYYADSVKGRFTISRDNAKNTVYLQLNSLKPEDTAVYYCAADSVYTLGLKYDYWGQGTQVTVSS | high polyreactivity
QVQLVESGGRLVQAGGSLRLSCAASGSTFVYYAMGWYRQAPGKERELVASINSGGSTYYADSVKGRFTISRDNAKNTVYLQMNSLKQEDTAVYDCAATSIPPSVHLQDPTYDYWGQGTQVTVSS | low polyreactivity

Sequence | polyreactivity (PSR sort gate)
QVQLVESVGGLVQAGGSLRLSCAASGRIFRFYAMGWYRQAPGKERELVAAISSSGVRTYYADSVKGRFTISRDNAKKTVYLQINSLTPEDTAVYYCAASRHFARHRGYYFRYDYWGQGTQVTVSS | high polyreactivity
QVQLVESGGGLVQAGGSLRLSCAASGSTFPSYAMGWYRQAPGKERELVAAITNGGSTTYADSVKGRFTISRDNAKNTVYLQMNSLKPDDTAVYYCAARYYYYYYYIRRDYWGQGTQVTVSS | low polyreactivity
QVQLVESGGGLVQAGGSLRLSCAASGSTFGHYAMGWYRQAPGKERELVAVISRSGARTYYADSVKGRFTISRDNAKNTVYLQMNSLKPEDTAVYYCNAGPYGGNPFDYWGQGTQVTVSS | high polyreactivity
QVQLVESGGGLVQEGGSLRLSCAASGRTFWQNAMGWYRQAAGKERELVAAIRIGGSTNYAVSVKGRFTISRDNAKNTVYLQMNSLKPEYTAFYYCAARRGYYSRNDYWGQVTQVTVSS | high polyreactivity
QVQLVESGGGLVQAGGSLRISCAASGLIFGINAMGWYIQAPGKERELVATITSGGGTNYADSVKGRFTISRDNAKNTVYLQMNSLKPEYTAVYFCALDSASDTIYDYWGQGTQGTVSS | low polyreactivity
QGQLVESGGGLVQAGGRLSLSCAASGFTFDNYAMGWYSQAPGKERELVAAITSGGSTNYADSVKGRFTISRDNAKNTVYLQMNSLKPEDTAVYYCNVERSIQAQVNAEYYYWGQGTQVSVSS | low polyreactivity
QVQLVESGGGLVQAGGSLRLSCAASGSTFGYYAMGWYRQAPGKERELVAAITSGGSKKYADSVKGRFTISRDNAKNTVYLQMNSLKPEDTAVYYCATSRYFGYGYWGQGTQVTVSS | low polyreactivity
QVQLVESGGGLVQAGGSLRLSCAASGNTLRVYALGWYRQAPGKERELVAAISYSSVNTYYADSVKGRFTISRDNAKNTVYLQMNSLKPEDTAVYYCAADYYYYRRTQYDLRGYPYYYWGQGTQVTVSS | low polyreactivity
QVQLVESGGGLVQAGGSLRLSCAASGSIFFLNAMGWYRQAPGKERELVAAITNVGSTYYADSVKGRFTISRDNAKNTVYLQMNSLKPEDTAVYYCNADPGEVLVGYDYWGQGTEVTVSS | low polyreactivity
QVQLVESGGGLVQAGGSLRLSCAASGSTFYFNAMGWYRQAPGKERELVADINYSGTSTYYADSVKGRFTISRDNAKNTVYLQMTSLKPEDTAVYYCAKSLPSSNTSTSYDYWGQGTQVTVSS | low polyreactivity
QVQLVESGGGLVQAGGSLRLSCAASGFTFVSYAMGWSRQAPGKERELVAVISKSGSRTSYAESVKGRFTISRDNAKNTVYLQMNSLKPEDTAVYYCAVYYTRIGPRYDYWGQGTQVTVSS | high polyreactivity
QVQLQESVVCLVQALGSLRLSCAASGNISDYYDMGWYGHAPGKERKFVAGIDFGAITNYADSVKGRFTISRDNAKNTEYMQMSSLKPEDTAVYYCAAGVYDWYAYDYWGQGTQVTVSS | high polyreactivity
QVQLVESGGRLVQAGVSLRISSAASGYISRVYAMGWYRHAPGKERELVAAITRSTTYYADSVKGRFTISRDNAKNTVYLQMNSLKPEDTAVDYCNADWASPGQVRMYYWGQGTQVTVSS | high polyreactivity
QVQLVDSGGGLVQAGGSLRLSCAASGRTFYPYVMGWYRQPPGKERELVADISWSGGRTYYADSVKGRFTISRDNAKNTVYLQMNSLKPEDTAVYYCAAGYRRRYNYWGQGTQVTVSS | high polyreactivity
QVQLVESGGGLVQAGGSLRLSCAASGFTFANNAMGWYRQAPGKERELVAAISWNGGSTFYADSVKGRFTISRDNAKNTVYLQMNSLKPEDTAVYYCNTVASYYRWKSYYYWGQGTQVTVSS | high polyreactivity
QVQLVESGGGLVQPGGSLRLSCAASGLTFPWYAMGWYRQAPGQERELVAAITNSDGNTFADSVKGRFTISRDNAKNSVYLQMNSLKAEDTAVYSCATDTRSLAYYYWGQGTQVTVSS | low polyreactivity
QVQLVESGGGLVQAGGSLRLSCAASGRIYVPNAMGWYRQAPGKERELVAAITSDGRTNDADSVKGRFTISRDNAKNTVYVQMNSLKPEDTAVYYSNAPVVTFGGYQDDVEYGYWGQGTQVTVSS | low polyreactivity
QVQLVESWGGLVQAGGSLRLSCAASGFTFLNYAMGWYRQAPGKERELVAAISFSTGRTYYADSVKGRFTISRDNAKNTDYLQMNSLKPEDTAVYYGAAGYWPGYSLTYRGGYWGQGTQVTVSS | high polyreactivity
QVQLVESGGGLVQAGGSLRLSCAASGSIFPTYVMGWYRQAPGKERELVAAISARGDSTYADSVKGRFTISRDNAKNTVYLQMNSLKPEDTAVYYCAKSAHSDYVYSRLEFGYWGQGTQVTVSS | low polyreactivity
QVQLVESGGGLVQAGGSLRLSCAASGSIFTFYAMGWYRQAPGKEREVVARITNGGNTNYADSGKGRFTISRDNAKNTVYLQMNSLKPEDTEVYYCAARWYWGWTRGDYWGQRTQVTVSS | high polyreactivity
